Test results published in article doi:10.1101/2021.04.27.441571.
Each block holds one molecule with its values, some of them ahead of it.

How the values were obtained:
[1] = target: wild type (WT) talin R3 domain
[2] = target: talin R3-IVVI domain
[3] = target: talin R3-IVVI domain; remark: listed apart in the source
[4] = target: talin R3-IVVI domain; remark: listed apart in the source
[5] = target: talin R3-IVVI domain; remark: listed apart in the source

Molecule: DnaJ (from UniProt P08622 1-376) (natural protein)
intersection force of R3-WT with DnaJ; without chaperone ∼6 pN [1]: 4 pN | percent of force-ramp events of R3-IVVI with hysteresis, with DnaJ; control ∼9% [2]: 86%

Molecule: DnaK (from UniProt P0A6Y8 1-638) (natural protein)
intersection force of R3-WT with DnaK; without chaperone ∼6 pN [1]: 4 pN | intersection force of R3-IVVI with DnaK-ADP complex (chevron plot) [3]: 7.1 pN | intersection force of R3-IVVI with DnaK-ATP (chevron plot) [3]: 7.6 pN | percent of force-ramp events of R3-IVVI with hysteresis, with DnaK; control ∼9% [2]: 91% | unfolding force of R3-IVVI in the presence of DnaK, DnaJ and ADP (DnaKJ-ADP) [4]: 6 pN | unfolding force of R3-IVVI with DnaK after addition of ATP (apo-DnaK: ∼6 pN) [4]: 7.5 pN

Molecule: Hsp70 (from UniProt P0DMV8 1-641) (natural protein)
intersection force of talin R3-IVVI (chevron plot), with Hsp70; control 9.8 pN [5]: 7.2 pN

Results, then the molecule that gave them:

intersection force of talin R3-IVVI (chevron plot), with Hsp40; control 9.8 pN [5]: 7.8 pN
Molecule: Hsp40 (from UniProt P25685 1-340) (natural protein)

intersection force of R3-WT with DsbA; without chaperone ∼6 pN [1]: 10 pN
B1: DsbA (oxidized) (enzyme)
chain: AQYEDGKQYTTLEKPVAGAPQVLEFFSFFCPHCYQFEEVLHISDNVKKKLPEGVKMTKYHVNFMGGDLGKDLTQAWAVAMALGVEDKVTVPLFEGVQKTQTIRSASDIRDVFINAGIKGEEYDAAWNSFVVKSLVAQQEKAAADVQLRGVPAMFVNGKYQLNPQGMDTSNMDVFVQQYADTVKYLSEKK
modifications: oxidized (0.3% H2O2 overnight)
